Series [1] has as its target T1, OCT2 DBD (POU domain) (Homo sapiens, UniProt P09086 195-357).
T1 sequence: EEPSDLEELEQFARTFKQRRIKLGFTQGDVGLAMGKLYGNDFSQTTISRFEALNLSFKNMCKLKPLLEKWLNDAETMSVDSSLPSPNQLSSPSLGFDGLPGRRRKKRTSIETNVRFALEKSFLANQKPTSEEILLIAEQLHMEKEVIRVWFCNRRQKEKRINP
Put plainly: fluorescence anisotropy; 0.20 M Na+, no poly[d(I-C)]; FP: 5 nM probe, 10 mM Bis-Tris pH 6.5, 0.01% BSA, 0.15-0.35 M NaCl, 25 C overnight, Hill fit with nH = 2 (macroscopic KD of dimer); EMSA: 10 nM DNA, PBS, 25 C o. To be noted: protein: recombinant; tags: N-terminal His6 removed by thrombin; chain copies: 2; label: 5'-HEX; blunt; self-complementary, 2 copies of the strand. (In general: In fluorescence polarisation assays a small probe gives low polarisation when free and higher when bound to something large.)

For series [2], the target named is T1, OCT2 DBD (POU domain). Put plainly: fluorescence anisotropy; 0.25 M Na+, no poly[d(I-C)]; FP: 5 nM probe, 10 mM Bis-Tris pH 6.5, 0.01% BSA, 0.15-0.35 M NaCl, 25 C overnight, Hill fit with nH = 2 (macroscopic KD of dimer); EMSA: 10 nM DNA, PBS, 25 C o. Particulars: protein: recombinant; tags: N-terminal His6 removed by thrombin; chain copies: 2; label: 5'-HEX; blunt; self-complementary, 2 copies of the strand.

Series [3] deals with T1, OCT2 DBD (POU domain). Put plainly: fluorescence anisotropy; 0.30 M Na+, no poly[d(I-C)]; FP: 5 nM probe, 10 mM Bis-Tris pH 6.5, 0.01% BSA, 0.15-0.35 M NaCl, 25 C overnight, Hill fit with nH = 2 (macroscopic KD of dimer); EMSA: 10 nM DNA, PBS, 25 C o. To be noted: protein: recombinant; tags: N-terminal His6 removed by thrombin; chain copies: 2; label: 5'-HEX; blunt; self-complementary, 2 copies of the strand.

In series [4] the target is T1, OCT2 DBD (POU domain). Put plainly: fluorescence anisotropy; 0.35 M Na+, no poly[d(I-C)]; FP: 5 nM probe, 10 mM Bis-Tris pH 6.5, 0.01% BSA, 0.15-0.35 M NaCl, 25 C overnight, Hill fit with nH = 2 (macroscopic KD of dimer); EMSA: 10 nM DNA, PBS, 25 C o. To be noted: protein: recombinant; tags: N-terminal His6 removed by thrombin; chain copies: 2; label: 5'-HEX; blunt; self-complementary, 2 copies of the strand.

The target in series [5] is T1, OCT2 DBD (POU domain). Put plainly: fluorescence anisotropy; 0.15 M Na+, 1 U poly[d(I-C)]; FP: 5 nM probe, 10 mM Bis-Tris pH 6.5, 0.01% BSA, 0.15-0.35 M NaCl, 25 C overnight, Hill fit with nH = 2 (macroscopic KD of dimer); EMSA: 10 nM DNA, PBS, 25 C o. Particulars: protein: recombinant; tags: N-terminal His6 removed by thrombin; chain copies: 2; label: 5'-HEX; blunt; self-complementary, 2 copies of the strand.

For series [6], the target named is T1, OCT2 DBD (POU domain). Put plainly: fluorescence anisotropy; 0.175 M Na+, no poly[d(I-C)]; FP: 5 nM probe, 10 mM Bis-Tris pH 6.5, 0.01% BSA, 0.15-0.35 M NaCl, 25 C overnight, Hill fit with nH = 2 (macroscopic KD of dimer); EMSA: 10 nM DNA, PBS, 25 C o. To be noted: protein: recombinant; tags: N-terminal His6 removed by thrombin; chain copies: 2; label: 5'-HEX; blunt; self-complementary, 2 copies of the strand.

The target of series [7] is T1, OCT2 DBD (POU domain). Put plainly: fluorescence anisotropy; 0.20 M Na+, 1 U poly[d(I-C)]; FP: 5 nM probe, 10 mM Bis-Tris pH 6.5, 0.01% BSA, 0.15-0.35 M NaCl, 25 C overnight, Hill fit with nH = 2 (macroscopic KD of dimer); EMSA: 10 nM DNA, PBS, 25 C o. Particulars: protein: recombinant; tags: N-terminal His6 removed by thrombin; chain copies: 2; label: 5'-HEX; blunt; self-complementary, 2 copies of the strand.

The target in series [8] is T1, OCT2 DBD (POU domain). Put plainly: fluorescence anisotropy; 0.25 M Na+, 1 U poly[d(I-C)]; FP: 5 nM probe, 10 mM Bis-Tris pH 6.5, 0.01% BSA, 0.15-0.35 M NaCl, 25 C overnight, Hill fit with nH = 2 (macroscopic KD of dimer); EMSA: 10 nM DNA, PBS, 25 C o. Particulars: protein: recombinant; tags: N-terminal His6 removed by thrombin; chain copies: 2; label: 5'-HEX; blunt; self-complementary, 2 copies of the strand.

Series [9] has as its target T1, OCT2 DBD (POU domain). Put plainly: fluorescence anisotropy; 0.30 M Na+, 1 U poly[d(I-C)]; FP: 5 nM probe, 10 mM Bis-Tris pH 6.5, 0.01% BSA, 0.15-0.35 M NaCl, 25 C overnight, Hill fit with nH = 2 (macroscopic KD of dimer); EMSA: 10 nM DNA, PBS, 25 C o. To be noted: protein: recombinant; tags: N-terminal His6 removed by thrombin; chain copies: 2; label: 5'-HEX; blunt; self-complementary, 2 copies of the strand.

Series [10] has as its target T1, OCT2 DBD (POU domain). Put plainly: fluorescence anisotropy; 0.175 M Na+, 1 U poly[d(I-C)]; FP: 5 nM probe, 10 mM Bis-Tris pH 6.5, 0.01% BSA, 0.15-0.35 M NaCl, 25 C overnight, Hill fit with nH = 2 (macroscopic KD of dimer); EMSA: 10 nM DNA, PBS, 25 C o. To be noted: protein: recombinant; tags: N-terminal His6 removed by thrombin; chain copies: 2; label: 5'-HEX; blunt; self-complementary, 2 copies of the strand.

Series [11] has as its target T1, OCT2 DBD (POU domain). Put plainly: fluorescence anisotropy; 0.15 M Na+, no poly[d(I-C)]; text gives 3.2 +/- 1.4 nM; FP: 5 nM probe, 10 mM Bis-Tris pH 6.5, 0.01% BSA, 0.15-0.35 M NaCl, 25 C overnight, Hill fit with nH = 2 (macroscopic KD of dimer); EMSA: 10 nM DNA, PBS, 25 C o. To be noted: protein: recombinant; tags: N-terminal His6 removed by thrombin; chain copies: 2; label: 5'-HEX; blunt; self-complementary, 2 copies of the strand.

Series [12] deals with T1, OCT2 DBD (POU domain). Put plainly: fluorescence anisotropy; 0.35 M Na+, 1 U poly[d(I-C)]; text gives 0.18 +/- 0.06 uM; FP: 5 nM probe, 10 mM Bis-Tris pH 6.5, 0.01% BSA, 0.15-0.35 M NaCl, 25 C overnight, Hill fit with nH = 2 (macroscopic KD of dimer); EMSA: 10 nM DNA, PBS, 25 C o. Particulars: protein: recombinant; tags: N-terminal His6 removed by thrombin; chain copies: 2; label: 5'-HEX; blunt; self-complementary, 2 copies of the strand.

Series [13] concerns the molecule itself. Put plainly: native gel or EMSA; 0.2 kbp DNA fragment with a single MORE site (10 nM) incubated overnight at 25 °C with graded OCT2 DBD (2-fold dilutions from 1 uM) in PBS; 4-20% gradient polyacrylamide gel; dimer assembled on DNA. (Mobility shift assays separate free from complexed probe on a gel.)

B1: MORE 22-bp, HEX-labelled (dsDNA)
DNA 1: TCCTCATGCATATGCATGAGGA
DNA 2: TCCTCATGCATATGCATGAGGA
Regarding B1, the Kd – broadly, a measure of binding affinity in units of concentration – with OCT2 DBD (POU domain) [1] amounted to 29 ± 9 nM; with OCT2 DBD (POU domain) [2], 88 ± 18 nM; in the series with OCT2 DBD (POU domain) [3] it was 560 ± 100 nM; with OCT2 DBD (POU domain) [4], 1200 ± 300 nM; with OCT2 DBD (POU domain) [5], 5.5 ± 1.3 nM; with OCT2 DBD (POU domain) [6], 9.7 ± 3.7 nM. Besides, the Kd is 16 ± 7 nM with OCT2 DBD (POU domain) [7]; 41 ± 13 nM with OCT2 DBD (POU domain) [8]; 71 ± 19 nM with OCT2 DBD (POU domain) [9]; 11 ± 4 nM in the series with OCT2 DBD (POU domain) [10]; 3.8 ± 1.4 nM with OCT2 DBD (POU domain) [11]; 190 ± 60 nM with OCT2 DBD (POU domain) [12].

B2: OCT2 DBD (DNA-binding domain, POU domain, of human POU factor OCT2) (domain or fragment, UniProt P09086 195-357, looked up)
chain: EEPSDLEELEQFARTFKQRRIKLGFTQGDVGLAMGKLYGNDFSQTTISRFEALNLSFKNMCKLKPLLEKWLNDAETMSVDSSLPSPNQLSSPSLGFDGLPGRRRKKRTSIETNVRFALEKSFLANQKPTSEEILLIAEQLHMEKEVIRVWFCNRRQKEKRINP
notes: Cloned into NdeI/BamHI of pET15b; residues of the vector may be left at the N-terminus after thrombin cleavage (surmised); the linker is not resolved in the structure; also called POU2F2; OCT DBD; source: E. coli BL21(DE3)pLysS, purified (Ni-NTA, thrombin cleavage, Sepharose SP, Superdex 75); not shown: His6, N-terminal, cleaved
As to B2, the stoichiometry N (in general, a count of units in the complex or per binding partner) in series [13] was determined as 2.

(Values after paper PMC11873960, “Coupled Heterogeneity to Dimeric Site-Specific Binding by the POU-Family Transcription Factor OCT2” (The Journal of Physical Chemistry. B, 2025).)
